# Measured values from patent publication US20110027281A1 (Ablynx, published 2011).
# Positions count from the first letter of the chain named. Names may count otherwise.
# T1: mouse TNF-alpha (mouse, UniProt P06804 80-235)
# T1 sequence (looked up): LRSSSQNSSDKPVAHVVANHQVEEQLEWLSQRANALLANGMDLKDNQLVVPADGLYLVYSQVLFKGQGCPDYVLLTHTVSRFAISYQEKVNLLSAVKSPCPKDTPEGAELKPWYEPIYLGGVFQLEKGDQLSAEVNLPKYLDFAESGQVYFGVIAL
# B1: BIV 3E (VHH)
# chain: QVQLQDSGGGLVQAGGSLRLSCAASGGTFSSIIMAWFRQAPGKEREFVGAVSWSGGTTVYADSVLGRFEISRDSARKSVYLQMNSLKPEDTAVYYCAARPYQKYNWASASYNVWGQGTQVTVSSEPKTPKPQPAAAQVQLQDSGGGLVQAGGSLRLSCAASGGTFSSIIMAWFRQAPGKEREFVGAVSWSGGTTVYADSVLGRFEISRDSARKSVYLQMNSLKPEDTAVYYCAARPYQKYNWASASYNVWGQGTQVTVSS
# B2: TRI 3E (VHH)
# chain: QVQLQESGGGLVQPGGSLRLSCAASGRTFSDHSGYTYTIGWFRQAPGKEREFVARIYWSSGNTYYADSVKGRFAISRDIAKNTVDLTMNNLEPEDTAVYYCAARDGIPTSRSVESYNYWGQGTQVTVSSEPKTPKPQPAAAQVQLQESGGGLVQPGGSLRLSCAASGRTFSDHSGYTYTIGWFRQAPGKEREFVARIYWSSGNTYYADSVKGRFAISRDIAKNTVDLTMNNLEPEDTAVYYCAARDGIPTSRSVESYNYWGQGTQVTVSSEPKTPKPQPAAAQVQLQESGGGLVQPGGSLRLSCAASGRTFSDHSGYTYTIGWFRQAPGKEREFVARIYWSSGNTYYADSVKGRFAISRDIAKNTVDLTMNNLEPEDTAVYYCAARDGIPTSRSVESYNYWGQGTQVTVSS
# B3: TETRA 3E (VHH)
# chain: QVQLQESGGGLVQPGGSLRLSCAASGRTFSDHSGYTYTIGWFRQAPGKEREFVARIYWSSGNTYYADSVKGRFAISRDIAKNTVDLTMNNLEPEDTAVYYCAARDGIPTSRSVESYNYWGQGTQVTVSSEPKTPKPQPAAAQVQLQESGGGLVQPGGSLRLSCAASGRTFSDHSGYTYTIGWFRQAPGKEREFVARIYWSSGNTYYADSVKGRFAISRDIAKNTVDLTMNNLEPEDTAVYYCAARDGIPTSRSVESYNYWGQGTQVTVSSEPKTPKPQPAAAQVQLQESGGGLVQPGGSLRLSCAASGRTFSDHSGYTYTIGWFRQAPGKEREFVARIYWSSGNTYYADSVKGRFAISRDIAKNTVDLTMNNLEPEDTAVYYCAARDGIPTSRSVESYNYWGQGTQVTVSSEPKTPKPQPAAAQVQLQESGGGLVQPGGSLRLSCAASGRTFSDHSGYTYTIGWFRQAPGKEREFVARIYWSSGNTYYADSVKGRFAISRDIAKNTVDLTMNNLEPEDTAVYYCAARDGIPTSRSVESYNYWGQGTQVTVSS
# B4: VHH#m3F (VHH)
# VHH: QVQLQDSGGGLVQAGGSLRLSCAASGGTFSSIIMAWFRQAPGKEREFVGAVSWSGGTTVYADSVLGRFEISRDSARKSVYLQMNSLKPEDTAVYYCAARPYQKYNWASASYNVWGQGTQVTVSS
# B5: VHH#m4B (VHH)
# VHH: QVQLQDSGGGLVQAGGSLRLSCGVSGLSFSGYTMGWFRQAPGKEREFAAAIGWNSGTTEYRNSVKGRFTISRDNAKNTVYLQMNSLKPEDTAVYYCAASPKYMTAYERSYDFWGQGTQVTVSS
# B6: VHH#m9E (VHH)
# VHH: EVQLVESGGGLVQAGGSLRLSCAASGGTLSSYITGWFRQAPGKEREFVGAVSWSSSTIVYADSVEGRFTISRDNHQNTVYLQMDSLKPEDTAVYYCAARPYQKYNWASASYNVWGQGTQVTVSS
# B7: BIV#m3F (VHH)
# chain: B1 chain
# B8: VHH#12B (VHH)
# VHH: QVQLQESGGGLVQPGGSLRLSCAASGFEFENHWMYWVRQAPGKGLEWVSTVNTNGLITRYADSVKGRFTISRDNAKYTLYLQMNSLKSEDTAVYYCTKVLPPYSDDSRTNADWGQGTQVTVSS
# B9: VHH#12B Q1E + Q5L + A74S + Y76N + K83R + P84A (VHH)
# VHH: B8 VHH with Q1E, Q5L, A75S, Y77N, K87R, S88A
# notes: Made by site-directed mutagenesis and purified on TALON; The tags are not described for the mutant; also called mutant Q1E+Q5L+A74S+Y76N+K83R+P84A; mutant 1E+Q5LA74S+Y76N+K83R+P84A
# How the values were obtained:
# [1] = target: T2, human Tumor Necrosis Factor alpha (human, UniProt P01375 77-233); test: cell-based or functional assay
# T2 sequence (P01375 77-233 limits assumed): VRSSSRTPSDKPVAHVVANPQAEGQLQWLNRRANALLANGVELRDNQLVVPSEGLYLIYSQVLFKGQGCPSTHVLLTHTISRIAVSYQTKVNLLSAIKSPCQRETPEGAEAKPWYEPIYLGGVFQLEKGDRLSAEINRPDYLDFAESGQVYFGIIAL
# [2] = target: T1, mouse TNF-alpha; test: cell-based or functional assay
# [3] = target: T2, human Tumor Necrosis Factor alpha; test: in vitro receptor binding assay: biotinylated human TNF-alpha pre-incubated with VHH, binding to coated Enbrel
binder,measurement,setting,value
B1,"IC50, cell based assay using KYM cells (TNF-alpha 1.29 ng/ml)",[1],0.03 nM
same,"fold lower IC50 than the monomer VHH#3E, cell based assay using KYM cells",[1],400 fold
B2,"IC50, cell based assay using KYM cells (TNF-alpha 1.29 ng/ml)",[1],20000 nM
B3,"IC50, cell based assay using KYM cells (TNF-alpha 1.29 ng/ml)",[1],6000 nM
B4,"IC50, MTT cytotoxicity assay with L929 cells (mouse TNF-alpha 65 pg/ml)",[2],2 nM
same,"relative potency, MTT cytotoxicity assay with the murine cell line L929",[2],10 fold
B5,"relative potency, MTT cytotoxicity assay with the murine cell line L929",[2],10 fold
B6,"IC50, MTT cytotoxicity assay with L929 cells (mouse TNF-alpha 65 pg/ml)",[2],25 nM
B7,"IC50, MTT cytotoxicity assay with L929 cells (mouse TNF-alpha 65 pg/ml)",[2],2000 nM
same,"fold change of IC50 against monovalent 3F, MTT cytotoxicity assay with L929 cells",[2],1000 fold
B8,IC50,[3],66 nM
B9,IC50,[3],200 nM
same,fold increase of IC50 against wild type VHH#12B,[3],3 fold
